How the values were obtained:
Assay in all cases: Kinase Profiling Assay
Type in all cases: biochemical
Conditions in all cases: 100 μM peptide
[1] = target: DAPK2(h) (Homo sapiens, UniProt Q9UIK4)
Procedure, shortened: (§1)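 All 266 human kinases of a profiling service were assayed in duplicate to establish whether MK2 inhibitory peptides act specifically.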

[2] = target: T1, EphB2(h) (Homo sapiens, UniProt P29323)
T1 sequence (P29323 19-1055): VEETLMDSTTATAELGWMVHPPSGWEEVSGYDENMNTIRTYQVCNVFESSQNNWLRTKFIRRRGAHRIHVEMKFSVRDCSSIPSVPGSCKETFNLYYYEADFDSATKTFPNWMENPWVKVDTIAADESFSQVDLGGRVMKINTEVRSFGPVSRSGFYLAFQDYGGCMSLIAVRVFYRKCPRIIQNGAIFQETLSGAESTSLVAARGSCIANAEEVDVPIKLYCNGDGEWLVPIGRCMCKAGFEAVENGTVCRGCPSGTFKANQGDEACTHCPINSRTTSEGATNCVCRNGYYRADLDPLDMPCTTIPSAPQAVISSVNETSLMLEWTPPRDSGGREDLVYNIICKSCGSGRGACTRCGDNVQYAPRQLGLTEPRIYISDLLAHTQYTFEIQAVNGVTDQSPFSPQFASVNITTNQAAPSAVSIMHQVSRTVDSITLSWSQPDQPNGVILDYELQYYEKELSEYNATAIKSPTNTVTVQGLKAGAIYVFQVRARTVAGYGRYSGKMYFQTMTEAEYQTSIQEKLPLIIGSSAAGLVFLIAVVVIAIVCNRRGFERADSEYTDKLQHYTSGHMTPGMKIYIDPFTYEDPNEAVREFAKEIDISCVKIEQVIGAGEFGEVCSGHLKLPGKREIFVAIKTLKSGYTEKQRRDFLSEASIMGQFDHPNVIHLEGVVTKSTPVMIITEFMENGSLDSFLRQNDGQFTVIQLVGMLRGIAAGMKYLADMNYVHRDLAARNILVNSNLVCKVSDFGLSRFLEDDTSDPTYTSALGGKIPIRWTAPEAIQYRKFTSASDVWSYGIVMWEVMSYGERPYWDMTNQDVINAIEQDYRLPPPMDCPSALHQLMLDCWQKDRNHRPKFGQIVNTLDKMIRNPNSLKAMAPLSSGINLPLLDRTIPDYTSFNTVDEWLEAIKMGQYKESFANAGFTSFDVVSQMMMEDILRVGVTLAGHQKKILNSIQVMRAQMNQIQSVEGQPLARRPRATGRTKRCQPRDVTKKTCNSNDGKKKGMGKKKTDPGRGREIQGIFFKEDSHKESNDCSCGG
Procedure, shortened: as §1

[3] = target: T2, EphB3(h) (Homo sapiens, UniProt P54753)
T2 sequence (P54753 34-998): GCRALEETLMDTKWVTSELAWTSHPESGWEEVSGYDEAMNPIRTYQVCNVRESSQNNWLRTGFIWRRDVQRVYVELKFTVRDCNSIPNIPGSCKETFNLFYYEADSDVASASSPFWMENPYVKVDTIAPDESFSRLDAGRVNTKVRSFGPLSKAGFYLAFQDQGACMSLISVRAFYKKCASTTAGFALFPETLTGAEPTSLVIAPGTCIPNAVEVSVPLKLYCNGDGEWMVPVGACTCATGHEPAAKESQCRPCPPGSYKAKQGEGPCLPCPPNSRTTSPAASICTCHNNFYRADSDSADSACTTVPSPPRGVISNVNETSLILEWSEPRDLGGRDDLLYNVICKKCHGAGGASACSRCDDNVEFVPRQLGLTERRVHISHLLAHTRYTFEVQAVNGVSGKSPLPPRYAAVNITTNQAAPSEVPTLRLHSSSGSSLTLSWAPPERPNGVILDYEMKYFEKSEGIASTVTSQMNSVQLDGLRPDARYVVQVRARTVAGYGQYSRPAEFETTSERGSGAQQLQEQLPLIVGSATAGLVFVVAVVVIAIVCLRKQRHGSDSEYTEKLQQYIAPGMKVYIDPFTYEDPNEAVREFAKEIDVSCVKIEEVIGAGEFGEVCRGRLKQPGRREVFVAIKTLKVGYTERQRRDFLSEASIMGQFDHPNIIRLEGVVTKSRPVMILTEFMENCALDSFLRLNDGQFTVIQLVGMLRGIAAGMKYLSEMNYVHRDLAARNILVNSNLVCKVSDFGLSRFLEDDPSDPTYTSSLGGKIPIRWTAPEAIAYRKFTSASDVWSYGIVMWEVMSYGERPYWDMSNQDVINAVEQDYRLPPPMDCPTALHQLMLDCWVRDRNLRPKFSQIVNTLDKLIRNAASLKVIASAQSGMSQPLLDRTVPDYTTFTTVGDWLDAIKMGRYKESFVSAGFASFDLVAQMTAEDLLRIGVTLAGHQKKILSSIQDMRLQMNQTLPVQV
Procedure, shortened: as §1

[4] = target: T3, JAK2(h) (Homo sapiens, UniProt O60674)
T3 construct: purchased Millipore
Procedure, shortened: as §1

[5] = target: LOK(h) (Homo sapiens, UniProt O94804)
Procedure, shortened: as §1

[6] = target: T4, RIPK2(h) (Homo sapiens, UniProt O43353)
T4 construct: purchased Millipore (IC50 Profiler Express service)
Procedure, shortened: as §1

[7] = target: T5, TSSK2(h) (Homo sapiens, UniProt Q96PF2)
T5 sequence (Q96PF2 1-358): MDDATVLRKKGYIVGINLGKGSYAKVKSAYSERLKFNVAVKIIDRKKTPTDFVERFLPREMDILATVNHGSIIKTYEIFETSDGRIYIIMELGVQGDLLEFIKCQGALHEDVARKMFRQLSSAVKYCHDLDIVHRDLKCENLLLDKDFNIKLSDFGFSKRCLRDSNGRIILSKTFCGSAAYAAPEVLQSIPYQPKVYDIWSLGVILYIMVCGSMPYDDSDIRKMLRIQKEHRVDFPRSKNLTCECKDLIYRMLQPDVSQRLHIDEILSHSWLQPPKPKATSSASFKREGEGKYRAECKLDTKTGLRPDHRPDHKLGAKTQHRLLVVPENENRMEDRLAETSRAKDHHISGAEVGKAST
Procedure, shortened: as §1

LOK(h), sequence (O94804 whole entry): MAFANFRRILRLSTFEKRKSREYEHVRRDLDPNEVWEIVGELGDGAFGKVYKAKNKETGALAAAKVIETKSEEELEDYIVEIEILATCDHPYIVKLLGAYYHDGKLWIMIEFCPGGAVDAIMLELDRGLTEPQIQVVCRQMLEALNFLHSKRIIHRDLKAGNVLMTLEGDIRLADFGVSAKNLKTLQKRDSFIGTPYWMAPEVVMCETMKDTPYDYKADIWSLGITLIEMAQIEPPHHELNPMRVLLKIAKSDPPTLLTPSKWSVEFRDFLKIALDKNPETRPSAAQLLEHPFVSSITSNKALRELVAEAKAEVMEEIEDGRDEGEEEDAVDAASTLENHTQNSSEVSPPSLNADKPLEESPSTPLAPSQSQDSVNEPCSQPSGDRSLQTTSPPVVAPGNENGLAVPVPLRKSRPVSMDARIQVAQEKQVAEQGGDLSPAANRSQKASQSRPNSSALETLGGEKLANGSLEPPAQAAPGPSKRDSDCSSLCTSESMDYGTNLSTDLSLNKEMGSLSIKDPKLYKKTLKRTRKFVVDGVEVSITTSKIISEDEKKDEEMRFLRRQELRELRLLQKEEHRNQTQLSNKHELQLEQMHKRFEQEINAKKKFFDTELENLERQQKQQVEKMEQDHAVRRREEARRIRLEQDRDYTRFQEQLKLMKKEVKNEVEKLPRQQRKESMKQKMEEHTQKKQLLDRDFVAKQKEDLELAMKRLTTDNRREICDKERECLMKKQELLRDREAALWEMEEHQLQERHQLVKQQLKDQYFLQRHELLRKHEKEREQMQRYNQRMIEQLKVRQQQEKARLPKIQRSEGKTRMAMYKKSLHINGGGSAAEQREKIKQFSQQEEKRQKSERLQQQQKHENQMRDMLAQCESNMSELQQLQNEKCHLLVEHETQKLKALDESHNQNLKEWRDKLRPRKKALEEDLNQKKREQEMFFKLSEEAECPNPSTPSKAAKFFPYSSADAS
DAPK2(h), sequence (Q9UIK4 whole entry): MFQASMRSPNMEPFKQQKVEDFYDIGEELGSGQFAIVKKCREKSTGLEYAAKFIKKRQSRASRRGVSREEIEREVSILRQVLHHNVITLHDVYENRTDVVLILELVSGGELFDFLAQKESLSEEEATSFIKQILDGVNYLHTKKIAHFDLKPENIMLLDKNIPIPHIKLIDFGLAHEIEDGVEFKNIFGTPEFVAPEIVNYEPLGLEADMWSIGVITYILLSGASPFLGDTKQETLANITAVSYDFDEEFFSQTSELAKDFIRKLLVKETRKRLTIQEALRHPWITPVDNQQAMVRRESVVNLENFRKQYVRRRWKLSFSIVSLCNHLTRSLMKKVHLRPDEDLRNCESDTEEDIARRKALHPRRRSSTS
T3 sequence (O60674 whole entry): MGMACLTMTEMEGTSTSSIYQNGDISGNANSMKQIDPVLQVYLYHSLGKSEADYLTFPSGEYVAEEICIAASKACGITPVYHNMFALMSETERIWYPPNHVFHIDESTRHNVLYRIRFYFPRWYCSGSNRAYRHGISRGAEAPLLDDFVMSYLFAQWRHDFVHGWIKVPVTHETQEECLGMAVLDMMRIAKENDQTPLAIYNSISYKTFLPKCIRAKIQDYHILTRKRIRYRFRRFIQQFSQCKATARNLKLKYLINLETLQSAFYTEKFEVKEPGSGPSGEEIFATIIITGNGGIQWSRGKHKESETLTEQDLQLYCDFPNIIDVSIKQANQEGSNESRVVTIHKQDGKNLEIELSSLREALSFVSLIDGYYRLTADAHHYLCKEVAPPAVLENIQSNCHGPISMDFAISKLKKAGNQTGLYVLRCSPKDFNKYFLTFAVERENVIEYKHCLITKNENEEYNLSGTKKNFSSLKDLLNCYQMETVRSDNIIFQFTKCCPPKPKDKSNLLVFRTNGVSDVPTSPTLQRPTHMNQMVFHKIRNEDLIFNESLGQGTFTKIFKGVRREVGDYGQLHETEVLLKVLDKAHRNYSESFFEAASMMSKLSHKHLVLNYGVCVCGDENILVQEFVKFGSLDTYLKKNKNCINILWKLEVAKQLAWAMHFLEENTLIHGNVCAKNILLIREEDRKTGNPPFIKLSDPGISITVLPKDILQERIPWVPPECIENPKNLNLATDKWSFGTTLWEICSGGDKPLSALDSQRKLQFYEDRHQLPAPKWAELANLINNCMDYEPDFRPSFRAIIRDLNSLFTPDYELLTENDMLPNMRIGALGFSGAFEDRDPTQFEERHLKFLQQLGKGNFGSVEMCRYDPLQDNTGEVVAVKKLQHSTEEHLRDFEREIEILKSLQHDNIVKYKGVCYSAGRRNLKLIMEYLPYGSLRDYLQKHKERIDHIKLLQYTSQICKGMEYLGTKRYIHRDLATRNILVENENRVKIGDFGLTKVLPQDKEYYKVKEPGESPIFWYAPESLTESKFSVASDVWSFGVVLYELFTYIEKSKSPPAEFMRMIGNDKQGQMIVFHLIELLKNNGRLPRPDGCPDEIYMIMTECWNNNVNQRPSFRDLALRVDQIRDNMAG
T4 sequence (O43353 whole entry): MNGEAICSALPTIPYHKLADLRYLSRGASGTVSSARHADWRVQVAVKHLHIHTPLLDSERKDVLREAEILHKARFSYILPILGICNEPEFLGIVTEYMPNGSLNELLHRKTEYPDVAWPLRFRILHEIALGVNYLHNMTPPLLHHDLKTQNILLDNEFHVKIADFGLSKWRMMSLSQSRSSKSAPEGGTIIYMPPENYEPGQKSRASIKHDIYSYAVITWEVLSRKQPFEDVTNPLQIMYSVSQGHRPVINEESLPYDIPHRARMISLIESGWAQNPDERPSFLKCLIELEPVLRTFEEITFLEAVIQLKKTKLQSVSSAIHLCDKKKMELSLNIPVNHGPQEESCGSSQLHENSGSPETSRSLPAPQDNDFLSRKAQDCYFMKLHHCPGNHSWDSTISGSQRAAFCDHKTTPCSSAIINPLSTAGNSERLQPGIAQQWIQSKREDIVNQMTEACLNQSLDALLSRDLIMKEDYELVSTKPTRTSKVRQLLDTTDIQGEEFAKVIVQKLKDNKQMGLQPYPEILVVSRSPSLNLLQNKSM

| Sequence | DAPK2(h) % activity [1] [%] | EphB2(h) % activity [2] [%] | EphB3(h) % activity [3] [%] | JAK2(h) % activity [4] [%] | LOK(h) % activity [5] [%] | RIPK2(h) % activity [6] [%] | TSSK2(h) % activity [7] [%] |
| --- | --- | --- | --- | --- | --- | --- | --- |
| HRRIKAWLKKIKALARQLGVAA (Mammalian) [MMI-0500] | 3 | 70 | 79 | 49 | 7 | 30 | 92 |
| KAFAKLAARLYRKALARQLGVAA [MMI-0400] | 16 | 22 | 47 |  | 18 | 98 | 94 |
| FAKLAARLYRKALARQLGVAA [MMI-0300] | 32 | 18 | 62 | 133 | 37 | 97 | 98 |
| YARAAARQARAKALNRQLGVA (Mammalian) [MMI-0200] | 92 | 128 | 128 | 131 | 67 | 98 | 91 |
